The record followed here is patent US20210139608.

The data set concerns T1, MMP2-cleavable peptide linker CGPLGVRGG within the MAP-Ab conjugate (imuGlue).
T1 sequence: CGPLGVRGG

In the case of MMP2 (matrix metalloproteinase-2), the “cumulative Ab release profile from MAP-Ab in the presence of MMP2” value is given as “the imuGlue may release 75% of Ab sprayed for 24 hours in the presence of MMP2” and the “emission spectrum of MAP-Ab with or without MMP2” value is listed as “when MMP2 treatment was carried out, a blue shift was observed in the MAP-Ab emission spectrum”.
